Our source for the Km and kcat values is article PMC5500849, “Cobamide-mediated enzymatic reductive dehalogenation via long-range electron transfer” (Nature Communications, 2017).

Substrate in data set [1]: Oc1ccc(Br)cc1Br
Description: purified protein. The settings on record: reduced methyl viologen 0.5 mM / Ti(III) citrate 1.4 mM, 100 mM Tris-HCl pH 7.5, 22 °C, no NH4+, kcat at Table 1, kcat includes further reduction to phenol.

Substrate in data set [2]: Oc1ccc(Br)cc1
Description: purified protein. The settings on record: reduced methyl viologen 0.5 mM / Ti(III) citrate 1.4 mM, 100 mM Tris-HCl pH 7.5, 22 °C, no NH4+, kcat at Table 1.

B1: PceA (PceA–Strep) (Sulfurospirillum multivorans) (protein)
chain: AEKEKNAAEIRQQFAMTAGSPIIVNDKLERYAEVRTAFTHPTSFFKPNYKGEVKPWFLSAYDEKVRQIENGENGPKMKAKNVGEARAGRALEAAGWTLDINYGNIYPNRFFMLWSGETMTNTQLWAPVGLDRRPPDTTDPVELTNYVKFAARMAGADLVGVARLNRNWVYSEAVTIPADVPYEQSLHKEIEKPIVFKDVPLPIETDDELIIPNTCENVIVAGIAMNREMMQTAPNSMACATTAFCYSRMCMFDMWLCQFIRYMGYYAIPSCNGVGQSVAFAVEAGLGQASRMGACITPEFGPNVRLTKVFTNMPLVPDKPIDFGVTEFCETCKKCARECPSKAITEGPRTFEGRSIHNQSGKLQWQNDYNKCLGYWPESGGYCGVCVAVCPFTKGNIWIHDGVEWLIDNTRFLDPLMLGMDDALGYGAKRNITEVWDGKINTYGLDADHFRDTVSFRKDRVKKS
Turning to B1, in “purified protein [1]”, the Km (usually the concentration of substrate that gives half-maximal velocity) was 95 µM and the kcat (as a rule, the maximal rate divided by the concentration of active sites) worked out at 252 s⁻¹. Besides, in “purified protein [2]”, the Km turned out to be 99 µM and the kcat came out at 809 s⁻¹.
